Measurements reported in paper PMC2139968 (The Journal of Cell Biology, 1997).

Molecular target: F-actin (rabbit, UniProt P68135 1-377)
Test: co-sedimentation

B1: His6-neurabin (natural protein)
chain: not shown
stoichiometry N: ~8 actin molecules per His6-neurabin molecule
